Assay results: article PMC7164962

Molecular target: ADHA, alcohol dehydrogenase from Candida magnoliae DSMZ 70638, wild type (Candida magnoliae DSMZ 70638)
Assay: crystal structure; purified enzyme, sitting drop, 20% w/v PEG 3350, 0.2 M sodium citrate; with or without 1 mM NADP+; quaternary structure seen in the crystal

**Q.** “ADHA, alcohol dehydrogenase from Candida magnoliae DSMZ 70638, wild type (enzyme)” was tested. Which stoichiometry N did it give?
**A.** 4
